Measurements from US20190352376A1.

Target: peptide of Example 1 (influenza virus)
Experiment: SPR, mAb captured on anti-mouse Fc, peptide injected

B1: F211-9D1 (antibody, V domains shown)
VL: DIVMSQSPSSLAVSVGEKVTMSCKSSQSLLNSRNQKNHLAWYQQKPGQSPKLLIYWASTRESGVPDRFSGDGSGTDFTLTISSVKAEDLAVYYCQQYYTYRTFGGGTKLEIK
VH: DVQLQESGPGLVKPSQSLSLTCSVTGYSITSDYYWNWIRQFPGNKLEWMAYIGYDGSKNYNPSLKNRISITRDTSKNQFFLKLNSVTTDDTATYYCTRDRANWDDYFDYWGQGTTLTVSS
B1 gave a Kd of 0.393 nM.
